From patent publication US20260049138A1 (Chugai, published 2026)
Positions count from the first letter of the chain named. Names may count otherwise.

B1: GLS3000 V94N one-arm antibody (antibody, human IgG1, kappa, L234A L235A, N297A, name in Kabat numbering)
heavy: QVQLVESGGGVVQPGRSLRLSCAASGFTFSNAWMHWVRQAPGKGLEWVAQIKAKSNNYATYYAESVKGRFTISRDDSKNSLYLQMNSLKTEDTAVYYCRYVHYGAYYGVDAWGQGTTVTVSSASTKGPSVFPLAPSSKSTSGGTAALGCLVKDYFPEPVTVSWNSGALTSGVHTFPAVLQSSGLYSLSSVVTVPSSSLGTQTYICNVNHKPSNTKVDKKVEPKSCDKTHTCPPCPAPEAAGGPSVFLFPPKPKDTLMISRTPEVTCVVVDVSHEDPEVKFNWYVDGVEVHNAKTKPREEQYASTYRVVSVLTVLHQDWLNGKEYKCKVSNKALPAPIEKTISKAKGQPREPQVYTLPPSRCELTKNQVSLSCAVKGFYPSDIAVEWESNGQPENNYKTTPPVLDSDGSFFLVSKLTVDKSRWQQGNVFSCSVMHEALHNHYTQKSLSLSPDYKDDDDK
chain: EPKSSDKTHTCPPCPAPELLGGPSVFLFPPKPKDTLMISRTPEVTCVVVDVSHEDPEVKFNWYVDGVEVHNAKTKPREEQYNSTYRVVSVLTVLHQDWLNGKEYKCKVSNKALPAPIEKTISKAKGQPREPQVCTLPPSRDELTKNQVSLWCLVKGFYPSDIAVEWESNGQPENNYKTTPPVLDSDGSFFLYSKLTVDKSRWQQGNVFSCSVMHEALHNRYTQKSLSLSP
light: DIVMTQSPLSLPVTPGEPASISCRSSQSLVHSNRNTYLHWYQQKPGQAPRLLIYKVSNRFSGVPDRFSGSGSGTDFTLKISRVEAEDVGVYYCGQGTQNPYTFGQGTKLEIKRTVAAPSVFIFPPSDEQLKSGTASVVCLLNNFYPREAKVQWKVDNALQSGNSQESVTEQDSKDSTYSLSSTLTLSKADYEKHKVYACEVTHQGLSSPVTKSFNRGEC
B2: GLS3000 Q45E one-arm antibody (antibody)
chain 1: B1 light with R50E, N99V
chain 2: B1 heavy
chain 3: B1 chain
B3: GLS3000 V94R one-arm antibody (antibody, human IgG1, kappa, L234A L235A, N297A, name in Kabat numbering)
heavy: B1 heavy
chain: B1 chain
light: B1 light with N99R
B4: GLS3000 V94P one-arm antibody (antibody, human IgG1, kappa, L234A L235A, N297A, name in Kabat numbering)
heavy: B1 heavy
chain: B1 chain
light: B1 light with N99P
B5: GLS3000 Y32D one-arm antibody (antibody, human IgG1, kappa, L234A L235A, N297A, name in Kabat numbering)
heavy: B1 heavy
chain: B1 chain
light: B1 light with Y37D, N99V
B6: GLS3000 V94Q one-arm antibody (antibody, human IgG1, kappa, L234A L235A, N297A, name in Kabat numbering)
heavy: B1 heavy
chain: B1 chain
light: B1 light with N99Q
B7: GLS3000 Y96H one-arm antibody (antibody, human IgG1, kappa, L234A L235A, N297A, name in Kabat numbering)
heavy: B1 heavy
chain: B1 chain
light: B1 light with N99V, Y101H
B8: GLS3000 Y32A one-arm antibody (antibody, human IgG1, kappa, L234A L235A, N297A, name in Kabat numbering)
heavy: B1 heavy
chain: B1 chain
light: B1 light with Y37A, N99V
B9: GLS3000 V94T one-arm antibody (antibody, human IgG1, kappa, L234A L235A, N297A, name in Kabat numbering)
heavy: B1 heavy
chain: B1 chain
light: B1 light with N99T
B10: GLS3000 Y32F one-arm antibody (antibody, human IgG1, kappa, L234A L235A, N297A, name in Kabat numbering)
heavy: B1 heavy
chain: B1 chain
light: B1 light with Y37F, N99V
B11: GLS3000 V94W one-arm antibody (antibody, human IgG1, kappa, L234A L235A, N297A, name in Kabat numbering)
heavy: B1 heavy
chain: B1 chain
light: B1 light with N99W
B12: GLS3000 Y96D one-arm antibody (antibody, human IgG1, kappa, L234A L235A, N297A, name in Kabat numbering)
heavy: B1 heavy
chain: B1 chain
light: B1 light with N99V, Y101D
B13: GLS3000 V94S one-arm antibody (antibody, human IgG1, kappa, L234A L235A, N297A, name in Kabat numbering)
heavy: B1 heavy
chain: B1 chain
light: B1 light with N99S
B14: GLS3000 Y96E one-arm antibody (antibody, human IgG1, kappa, L234A L235A, N297A, name in Kabat numbering)
heavy: B1 heavy
chain: B1 chain
light: B1 light with N99V, Y101E
B15: GLS3000 Y96L one-arm antibody (antibody, human IgG1, kappa, L234A L235A, N297A, name in Kabat numbering)
heavy: B1 heavy
chain: B1 chain
light: B1 light with N99V, Y101L
B16: GLS3000 Y32P one-arm antibody (antibody, human IgG1, kappa, L234A L235A, N297A, name in Kabat numbering)
heavy: B1 heavy
chain: B1 chain
light: B1 light with Y37P, N99V
B17: GLS3000 V94Y one-arm antibody (antibody, human IgG1, kappa, L234A L235A, N297A, name in Kabat numbering)
heavy: B1 heavy
chain: B1 chain
light: B1 light with N99Y
B18: GLS3000 Y96F one-arm antibody (antibody, human IgG1, kappa, L234A L235A, N297A, name in Kabat numbering)
heavy: B1 heavy
chain: B1 chain
light: B1 light with N99V, Y101F
B19: CE115HA000 H35A one-arm antibody (antibody, human IgG1, kappa, L234A L235A, N297A, name in Kabat numbering)
heavy: B1 heavy with H35A
chain: B1 chain
light: B1 light with N99V
B20: CE115HA000 A32Y one-arm antibody (antibody, human IgG1, kappa, L234A L235A, N297A, name in Kabat numbering)
heavy: B1 heavy with A32Y
chain: B1 chain
light: B1 light with N99V
B21: CE115HA000 A52aY one-arm antibody (antibody, human IgG1, kappa, L234A L235A, N297A, name in Kabat numbering)
heavy: B1 heavy with A53Y
chain: B1 chain
light: B1 light with N99V
B22: CE115HA000 A56G one-arm antibody (antibody, human IgG1, kappa, L234A L235A, N297A, name in Kabat numbering)
heavy: B1 heavy with A59G
chain: B1 chain
light: B1 light with N99V
B23: CE115HA000 A56K one-arm antibody (antibody, human IgG1, kappa, L234A L235A, N297A, name in Kabat numbering)
heavy: B1 heavy with A59K
chain: B1 chain
light: B1 light with N99V
B24: CE115HA000 A56L one-arm antibody (antibody, human IgG1, kappa, L234A L235A, N297A, name in Kabat numbering)
heavy: B1 heavy with A59L
chain: B1 chain
light: B1 light with N99V
B25: CE115HA000 A52aV one-arm antibody (antibody, human IgG1, kappa, L234A L235A, N297A, name in Kabat numbering)
heavy: B1 heavy with A53V
chain: B1 chain
light: B1 light with N99V
B26: CE115HA000 A52aS one-arm antibody (antibody, human IgG1, kappa, L234A L235A, N297A, name in Kabat numbering)
heavy: B1 heavy with A53S
chain: B1 chain
light: B1 light with N99V
B27: CE115HA000 A52aE one-arm antibody (antibody, human IgG1, kappa, L234A L235A, N297A, name in Kabat numbering)
heavy: B1 heavy with A53E
chain: B1 chain
light: B1 light with N99V
B28: CE115HA000 A52aG one-arm antibody (antibody, human IgG1, kappa, L234A L235A, N297A, name in Kabat numbering)
heavy: B1 heavy with A53G
chain: B1 chain
light: B1 light with N99V
B29: CE115HA000 A52aD one-arm antibody (antibody, human IgG1, kappa, L234A L235A, N297A, name in Kabat numbering)
heavy: B1 heavy with A53D
chain: B1 chain
light: B1 light with N99V
B30: CE115HA000 A52aP one-arm antibody (antibody, human IgG1, kappa, L234A L235A, N297A, name in Kabat numbering)
heavy: B1 heavy with A53P
chain: B1 chain
light: B1 light with N99V
B31: CE115HA000 A56D one-arm antibody (antibody, human IgG1, kappa, L234A L235A, N297A, name in Kabat numbering)
heavy: B1 heavy with A59D
chain: B1 chain
light: B1 light with N99V

biological target: T1, CD3ε homodimer protein (human, UniProt P07766 23-126, limits assumed); assay: SPR Biacore T200, CD3ε homodimer on chip;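 also: Light-chain single-residue variant antibodies injected over amine-coupled CD3ε homodimer on a CM4 chip at 25 °C, bound amount divided by that of the GLS3000-containing antibody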
T1 construct: also called CD3 (CD3ε)
T1 sequence (P07766 23-126 limits assumed): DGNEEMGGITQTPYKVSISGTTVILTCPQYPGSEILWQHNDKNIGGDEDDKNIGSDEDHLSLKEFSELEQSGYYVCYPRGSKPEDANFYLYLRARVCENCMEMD

Question: Which “ratio of amount bound vs unaltered GLS3000” value (“ratio of amount bound” below) does the source give for B1 here?
Answer: 1.05

Question: With B2 as the binder, how does the “ratio of amount bound” value read?
Answer: 0.75

Question: With B3 as the binder, how does the “ratio of amount bound” value read?
Answer: 0.66

Question: For B4, which “ratio of amount bound” value is on record?
Answer: 1.26

Question: How did the “ratio of amount bound” value turn out when B5 was run?
Answer: 0.23

Question: How did the “ratio of amount bound” value turn out when B6 was run?
Answer: 0.76

Question: How did the “ratio of amount bound” value turn out when B7 was run?
Answer: 0.23

Question: For B8, which “ratio of amount bound” value is on record?
Answer: 0.24

Question: How did the “ratio of amount bound” value turn out when B9 was run?
Answer: 0.93

Question: Which “ratio of amount bound” value does the source give for B10 here?
Answer: 0.29

Question: For B11, which “ratio of amount bound” value is on record?
Answer: 0.58

Question: For B12, which “ratio of amount bound” value is on record?
Answer: 0.17

Question: For B13, which “ratio of amount bound” value is on record?
Answer: 0.93

Question: With B14 as the binder, how does the “ratio of amount bound” value read?
Answer: 0.17

Question: Which “ratio of amount bound” value does the source give for B15 here?
Answer: 0.32

Question: With B16 as the binder, how does the “ratio of amount bound” value read?
Answer: 0.24

Question: B17 was tested. Which “ratio of amount bound” value did it give?
Answer: 0.63

Question: B18 was tested. Which “ratio of amount bound” value did it give?
Answer: 1.17

biological target: T2, CD3ε homodimer protein (human, UniProt P07766 23-126, limits assumed, sulfo-tag or biotin label in the ECL assays; amine-coupled to the chip in SPR); assay: SPR Biacore T200; CD3ε homodimer on CM4 chip;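 also: Single-residue variant antibodies injected as analyte over CD3ε homodimer immobilized by amine coupling, run at 25 °C in HBS-EP+ buffer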
T2 construct: also called human CD3ε homodimer protein; CD3 (CD3ε)
T2 sequence (P07766 23-126 limits assumed): as above
Experimental: An appropriate amount of CD3ε homodimer protein was immobilized onto Sensor chip CM4 (GE Healthcare Japan Corp.) by the amine coupling method. Then, the antibody having an appropriate concentration was injected thereto as an analyte and allowed to interact with the CD3ε homodimer protein on the sensor chip. Then, the sensor chip was regenerated by the injection of 10 mmol/L glycine-HCl (pH 1.5). The assay was conducted at 25° C., and HBS-EP+ (GE Healthcare Japan Corp.) was used as a running buffer. […] Each parameter was calculated using Biacore T200 Evaluation Software (GE Healthcare Japan Corp.).

Question: Which “ratio of amounts bound Z=Y/X (altered form / CE115HA000)” value does the source give for B19 here?
Answer: 0.17

Question: For B20, which “ratio of amounts bound Z=Y/X (altered form / CE115HA000)” value is on record?
Answer: 0.33

Question: How did the “ratio of amounts bound Z=Y/X (altered form / CE115HA000)” value turn out when B21 was run?
Answer: 0.31

Question: B22 was tested. Which “ratio of amounts bound Z=Y/X (altered form / CE115HA000)” value did it give?
Answer: 0.61

Question: With B23 as the binder, how does the “ratio of amounts bound Z=Y/X (altered form / CE115HA000)” value read?
Answer: 1.35

Question: B24 was tested. Which “ratio of amounts bound Z=Y/X (altered form / CE115HA000)” value did it give?
Answer: 0.8

Question: With B25 as the binder, how does the “ratio of amounts bound Z=Y/X (altered form / CE115HA000)” value read?
Answer: 0.52

Question: How did the “ratio of amounts bound Z=Y/X (altered form / CE115HA000)” value turn out when B26 was run?
Answer: 1.05

Question: B27 was tested. Which “ratio of amounts bound Z=Y/X (altered form / CE115HA000)” value did it give?
Answer: 0.57

Question: With B28 as the binder, how does the “ratio of amounts bound Z=Y/X (altered form / CE115HA000)” value read?
Answer: 0.81

Question: How did the “ratio of amounts bound Z=Y/X (altered form / CE115HA000)” value turn out when B29 was run?
Answer: 1.34

Question: How did the “ratio of amounts bound Z=Y/X (altered form / CE115HA000)” value turn out when B30 was run?
Answer: 0.15

Question: Which “ratio of amounts bound Z=Y/X (altered form / CE115HA000)” value does the source give for B31 here?
Answer: 0.51
